Reference: PMC12724371 (Journal of Virology, 2025)

Columns and labels:
Assay in all cases: BLI
Settings in all cases: both partners purified
[1] = molecular target: T1, OC-43 full-length spike protein (HCoV-OC43, UniProt P36334)
T1 construct: source: bought: Sino Biological

[2] = molecular target: T2, SARS-CoV-2 spike S2 subunit (SARS-CoV-2, Wuhan-Hu-1 reference, UniProt P0DTC2)
T2 construct: source: bought: Sino Biological

[3] = molecular target: T3, HKU-1 full-length spike protein (HCoV-HKU1, UniProt Q0ZME7)
T3 construct: also called HKU1 SP; HCoV-HKU1 full-length SP; source: bought: Sino Biological

[4] = molecular target: SARS-CoV full-length spike protein (SARS-CoV, strain  (entry …, UniProt P59594))
[5] = molecular target: RatG13 full-length spike protein (Bat coronavirus RaTG13, UniProt A0ABF7PLN6)
[6] = molecular target: MERS full-length spike protein (MERS-CoV, strain  (entry: …, UniProt K9N5Q8))
Chain of MERS full-length spike protein (MERS-CoV, strain  (K9N5Q8 18-1353): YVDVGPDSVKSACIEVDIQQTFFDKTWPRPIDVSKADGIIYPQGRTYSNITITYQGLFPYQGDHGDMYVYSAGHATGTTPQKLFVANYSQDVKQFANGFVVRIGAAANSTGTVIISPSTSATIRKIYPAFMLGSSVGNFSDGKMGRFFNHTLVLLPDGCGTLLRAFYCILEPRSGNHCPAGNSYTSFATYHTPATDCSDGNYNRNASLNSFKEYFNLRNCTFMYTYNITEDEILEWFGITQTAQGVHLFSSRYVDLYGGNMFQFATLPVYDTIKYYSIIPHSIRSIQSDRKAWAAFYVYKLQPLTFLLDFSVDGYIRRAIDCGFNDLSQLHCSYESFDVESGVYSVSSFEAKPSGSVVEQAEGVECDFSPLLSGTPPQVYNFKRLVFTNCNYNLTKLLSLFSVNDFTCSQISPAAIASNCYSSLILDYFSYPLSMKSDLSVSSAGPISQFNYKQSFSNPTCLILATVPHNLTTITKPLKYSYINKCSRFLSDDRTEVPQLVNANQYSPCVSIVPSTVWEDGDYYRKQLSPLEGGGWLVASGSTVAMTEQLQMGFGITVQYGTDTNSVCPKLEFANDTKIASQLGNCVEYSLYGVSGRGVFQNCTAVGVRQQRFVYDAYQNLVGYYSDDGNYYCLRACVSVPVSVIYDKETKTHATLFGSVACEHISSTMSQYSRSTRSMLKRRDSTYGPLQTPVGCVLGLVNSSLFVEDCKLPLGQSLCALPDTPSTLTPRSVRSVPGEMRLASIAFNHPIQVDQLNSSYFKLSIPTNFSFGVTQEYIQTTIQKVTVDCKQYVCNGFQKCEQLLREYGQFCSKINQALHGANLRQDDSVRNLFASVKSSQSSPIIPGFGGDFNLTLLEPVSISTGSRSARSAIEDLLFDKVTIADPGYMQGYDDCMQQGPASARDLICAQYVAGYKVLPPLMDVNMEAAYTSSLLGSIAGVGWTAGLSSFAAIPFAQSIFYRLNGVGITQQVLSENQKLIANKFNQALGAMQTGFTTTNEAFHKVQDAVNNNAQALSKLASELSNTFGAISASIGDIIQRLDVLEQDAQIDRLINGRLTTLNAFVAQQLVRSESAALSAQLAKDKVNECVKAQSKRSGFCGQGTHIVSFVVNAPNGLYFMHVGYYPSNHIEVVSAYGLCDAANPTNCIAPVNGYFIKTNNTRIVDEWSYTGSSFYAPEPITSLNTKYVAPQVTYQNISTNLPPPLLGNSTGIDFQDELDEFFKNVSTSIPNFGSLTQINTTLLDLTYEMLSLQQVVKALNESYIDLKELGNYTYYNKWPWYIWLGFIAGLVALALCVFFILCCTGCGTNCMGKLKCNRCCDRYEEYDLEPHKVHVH

[7] = molecular target: T4, SARS-CoV spike S2 subunit (SARS-CoV, strain  (entry …, UniProt P59594))
T4 construct: source: bought: Sino Biological

MERS spike S2 subunit = molecular target: T5, MERS spike S2 subunit (MERS-CoV, strain  (entry: …, UniProt K9N5Q8))
T5 construct: source: bought: Sino Biological
T5 sequence (K9N5Q8 whole entry, looked up): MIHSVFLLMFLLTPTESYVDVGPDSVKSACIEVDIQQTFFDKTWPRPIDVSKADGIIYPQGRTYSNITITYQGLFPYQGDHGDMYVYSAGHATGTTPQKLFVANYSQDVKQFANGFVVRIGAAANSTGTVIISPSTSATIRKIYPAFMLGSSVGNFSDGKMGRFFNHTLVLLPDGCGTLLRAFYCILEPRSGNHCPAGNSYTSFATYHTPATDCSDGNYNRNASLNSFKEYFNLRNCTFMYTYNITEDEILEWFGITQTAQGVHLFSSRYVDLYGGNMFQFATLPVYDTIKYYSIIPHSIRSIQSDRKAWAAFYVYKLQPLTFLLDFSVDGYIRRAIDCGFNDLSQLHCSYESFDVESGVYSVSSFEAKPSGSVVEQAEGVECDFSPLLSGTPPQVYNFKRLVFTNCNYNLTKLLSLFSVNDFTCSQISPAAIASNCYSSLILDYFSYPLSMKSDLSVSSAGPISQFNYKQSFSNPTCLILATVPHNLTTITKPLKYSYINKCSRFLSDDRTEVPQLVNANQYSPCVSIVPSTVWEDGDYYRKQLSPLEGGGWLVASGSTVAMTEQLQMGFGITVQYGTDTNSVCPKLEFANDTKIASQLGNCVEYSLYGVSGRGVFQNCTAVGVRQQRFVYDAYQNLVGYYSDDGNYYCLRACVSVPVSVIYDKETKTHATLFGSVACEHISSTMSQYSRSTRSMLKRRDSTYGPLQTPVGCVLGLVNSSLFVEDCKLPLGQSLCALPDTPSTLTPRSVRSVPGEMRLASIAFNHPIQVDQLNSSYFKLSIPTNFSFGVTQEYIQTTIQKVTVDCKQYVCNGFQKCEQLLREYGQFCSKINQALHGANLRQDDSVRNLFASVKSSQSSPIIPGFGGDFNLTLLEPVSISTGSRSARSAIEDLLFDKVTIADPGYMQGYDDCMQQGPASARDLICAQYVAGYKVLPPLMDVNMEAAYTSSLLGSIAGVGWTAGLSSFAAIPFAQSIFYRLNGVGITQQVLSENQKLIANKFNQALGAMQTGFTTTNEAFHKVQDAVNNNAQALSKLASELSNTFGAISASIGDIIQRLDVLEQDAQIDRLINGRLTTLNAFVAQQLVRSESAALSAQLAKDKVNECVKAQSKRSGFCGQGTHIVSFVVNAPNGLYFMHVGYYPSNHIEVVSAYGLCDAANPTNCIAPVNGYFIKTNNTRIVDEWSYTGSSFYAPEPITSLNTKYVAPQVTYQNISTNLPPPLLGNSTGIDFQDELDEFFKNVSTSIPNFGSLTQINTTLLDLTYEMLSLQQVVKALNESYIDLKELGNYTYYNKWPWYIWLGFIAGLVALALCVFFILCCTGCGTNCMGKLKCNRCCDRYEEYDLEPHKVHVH

Measured: binding result

T1 sequence (P36334 14-1353): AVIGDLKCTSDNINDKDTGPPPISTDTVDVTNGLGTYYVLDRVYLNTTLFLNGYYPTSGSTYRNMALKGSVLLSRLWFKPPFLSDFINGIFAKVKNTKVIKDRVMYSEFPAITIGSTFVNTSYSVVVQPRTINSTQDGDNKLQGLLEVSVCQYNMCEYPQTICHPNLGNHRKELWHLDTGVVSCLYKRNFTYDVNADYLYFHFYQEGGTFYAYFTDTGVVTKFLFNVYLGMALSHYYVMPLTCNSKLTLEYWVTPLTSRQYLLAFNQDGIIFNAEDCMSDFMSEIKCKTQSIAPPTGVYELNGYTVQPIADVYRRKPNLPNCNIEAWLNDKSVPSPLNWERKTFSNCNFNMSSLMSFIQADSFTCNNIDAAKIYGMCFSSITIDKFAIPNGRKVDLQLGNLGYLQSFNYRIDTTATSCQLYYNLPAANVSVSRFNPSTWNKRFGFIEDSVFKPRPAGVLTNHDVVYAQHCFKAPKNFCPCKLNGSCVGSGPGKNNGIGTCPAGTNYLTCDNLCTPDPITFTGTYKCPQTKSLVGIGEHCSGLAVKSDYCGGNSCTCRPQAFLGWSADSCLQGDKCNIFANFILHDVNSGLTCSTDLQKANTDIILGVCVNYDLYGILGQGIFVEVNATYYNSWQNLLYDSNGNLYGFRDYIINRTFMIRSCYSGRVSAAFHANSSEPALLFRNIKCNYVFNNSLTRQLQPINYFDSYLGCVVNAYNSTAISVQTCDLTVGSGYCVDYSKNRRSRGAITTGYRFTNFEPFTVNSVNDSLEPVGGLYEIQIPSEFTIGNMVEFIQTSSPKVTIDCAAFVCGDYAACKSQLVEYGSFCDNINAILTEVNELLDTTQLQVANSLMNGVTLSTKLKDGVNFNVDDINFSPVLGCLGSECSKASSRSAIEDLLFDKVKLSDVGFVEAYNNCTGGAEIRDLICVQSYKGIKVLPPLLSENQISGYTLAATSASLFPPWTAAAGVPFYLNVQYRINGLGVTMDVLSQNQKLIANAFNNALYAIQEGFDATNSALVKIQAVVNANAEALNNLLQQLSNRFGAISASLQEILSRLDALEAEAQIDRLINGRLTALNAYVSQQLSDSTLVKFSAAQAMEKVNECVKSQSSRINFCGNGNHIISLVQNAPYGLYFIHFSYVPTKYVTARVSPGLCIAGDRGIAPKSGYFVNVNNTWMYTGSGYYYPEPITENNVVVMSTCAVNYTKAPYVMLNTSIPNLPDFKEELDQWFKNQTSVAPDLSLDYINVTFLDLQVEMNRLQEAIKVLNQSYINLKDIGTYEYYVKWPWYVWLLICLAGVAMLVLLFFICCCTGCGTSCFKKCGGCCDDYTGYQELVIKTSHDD

B1: mAb 1871 IgG1 (wild-type human IgG1 Fc) (antibody, V domains shown)
VH: EVQLVESGGGLVKPGGSLRLSCVASGFSFSIYSMNWVRQAPGKGLEWVSYISSSSSYKYYADSVKGRFSVSRDNAKNSLYLQLNGLRAEDTAVYYCARDGYCPKGVCTYYGMDVWGQGTTVTVSA
VL: EIVMTQSPATLSVSPGERVTLSCRASQSVRSRLAWFQQKPGQAPRLLIYDASIRATGIPARFSGSGSGTEFTLIISSLQSEDFAVYYCQQYDNWPPAYTFGQGTKLEIK
notes: also called ADPT01871; source: HEK-293F, transiently transfected, purified (protein A, SEC Superdex200)
binds: all assays above
